The results in this text go back to the supplement of paper PMC9112550, “Optimization of the antimicrobial peptide Bac7 by deep mutational scanning” (BMC Biology, 2022).

The data set has as its system Escherichia coli TOP10. Description: shrunken log2 fold change of peptide-encoding DNA abundance (4.5 h post-induction vs induction); higher = less antimicrobial activity (less host growth inhibition). To be noted: time post-induction: 4.5 h; library: site-saturation at positions 5, 18, 19, 20.
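Note: peptides expressed intracellularly from a pBAD plasmid library in pooled LB shake-flask culture, induced with 0.3% L-arabinose, DNA abundance read by NGS, three biological replicates, DESeq2 with apeglm shrinkage.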

With RRIRHRPPRLPRPRPRPFNGPRP, the “shrunken log2 fold change” value was -0.118.
Next, RRIRKRPPRLPRPRPRPSERPRP: 0.317.
For RRIRERPPRLPRPRPRPCYYPRP the value was -0.312.
Next, RRIRARPPRLPRPRPRPPGAPRP: 1.11; RRIRVRPPRLPRPRPRPNGAPRP: -0.0189.
As for RRIRLRPPRLPRPRPRPCADPRP, the “shrunken log2 fold change” value is 0.151.
Next, RRIRHRPPRLPRPRPRPGREPRP: 0.0529; RRIRVRPPRLPRPRPRPFILPRP: -0.384; RRIRVRPPRLPRPRPRPGVQPRP: -0.0209.
Next, RRIRARPPRLPRPRPRPFQQPRP: 0.00604; RRIRPRPPRLPRPRPRPHMKPRP: 1.08.
Consider RRIRPRPPRLPRPRPRPCLIPRP, for which the “shrunken log2 fold change” value is -0.129.
For RRIRERPPRLPRPRPRPHEIPRP the value was -0.0168.
Next, RRIRYRPPRLPRPRPRPGWLPRP: 0.0173; RRIRNRPPRLPRPRPRPDRAPRP: 0.171; RRIRPRPPRLPRPRPRPDKVPRP: -0.249.
As to RRIRFRPPRLPRPRPRPPWYPRP, the “shrunken log2 fold change” value is -0.3.
RRIRMRPPRLPRPRPRPYSEPRP: the “shrunken log2 fold change” value is 0.171.
For RRIRIRPPRLPRPRPRPMCSPRP the value was -0.119; for RRIRYRPPRLPRPRPRPRYFPRP, -0.212.
For RRIRERPPRLPRPRPRPKENPRP the value was -0.135.
For RRIRHRPPRLPRPRPRPHMAPRP, the “shrunken log2 fold change” value is -0.0236.
Next, RRIRQRPPRLPRPRPRPQHFPRP: 0.14.
Next, RRIRHRPPRLPRPRPRPAANPRP: -0.0763.
Next, RRIRPRPPRLPRPRPRPMQPPRP: 0.234; RRIRSRPPRLPRPRPRPKIKPRP: -0.346; RRIRKRPPRLPRPRPRPTKFPRP: 0.663.
For the sequence RRIRQRPPRLPRPRPRPHCYPRP, the “shrunken log2 fold change” value is -0.0282.
Next, RRIRKRPPRLPRPRPRPASCPRP: 0.431.
For RRIRLRPPRLPRPRPRPKILPRP the value was -0.143; for RRIRKRPPRLPRPRPRPKDNPRP, 0.297.
Next, RRIRSRPPRLPRPRPRPACPPRP: 0.413; RRIRNRPPRLPRPRPRPPWNPRP: 0.0711; RRIRIRPPRLPRPRPRPIKRPRP: -0.0331.
As to RRIRMRPPRLPRPRPRPPRSPRP, the “shrunken log2 fold change” value is 1.6.
Next, RRIRSRPPRLPRPRPRPQCFPRP: -0.282; RRIRRRPPRLPRPRPRPVDDPRP: -0.0484; RRIRWRPPRLPRPRPRPRVKPRP: 0.13.
Next, RRIRMRPPRLPRPRPRPCPHPRP: 0.0961; RRIRERPPRLPRPRPRPSFQPRP: -0.0708.
Next, RRIRYRPPRLPRPRPRPECGPRP: -0.114; RRIRARPPRLPRPRPRPLEAPRP: 1.21; RRIRVRPPRLPRPRPRPEIKPRP: -0.107.
RRIRCRPPRLPRPRPRPTIHPRP: the “shrunken log2 fold change” value is -0.883.
Take RRIRNRPPRLPRPRPRPMIYPRP: the “shrunken log2 fold change” value is -0.265.
Next, RRIRLRPPRLPRPRPRPDITPRP: -0.00678; RRIRPRPPRLPRPRPRPPPCPRP: 0.384.
Next, RRIRNRPPRLPRPRPRPIDKPRP: -0.0756.
Next, RRIRGRPPRLPRPRPRPVFCPRP: 0.206; RRIRQRPPRLPRPRPRPSSCPRP: 0.0394.
Turning to RRIRSRPPRLPRPRPRPYPSPRP, the “shrunken log2 fold change” value was -0.203.
For RRIRSRPPRLPRPRPRPTELPRP the value was -0.0967.
For RRIRDRPPRLPRPRPRPEQPPRP the value was -0.0458; for RRIRRRPPRLPRPRPRPDGSPRP, 0.0601; for RRIRERPPRLPRPRPRPLWAPRP, 0.274.
For RRIRTRPPRLPRPRPRPTFAPRP the value was 0.459; for RRIRGRPPRLPRPRPRPDLQPRP, 1.37.
With RRIRWRPPRLPRPRPRPEQTPRP, the “shrunken log2 fold change” value is -0.0026.
Next, RRIRPRPPRLPRPRPRPERMPRP: 0.122.
For RRIRFRPPRLPRPRPRPCIHPRP, the “shrunken log2 fold change” value is -0.0499.
Next, RRIRGRPPRLPRPRPRPNMIPRP: 0.0819; RRIRTRPPRLPRPRPRPEHTPRP: -0.174.
RRIRYRPPRLPRPRPRPRIVPRP: the “shrunken log2 fold change” value was -0.369.
For RRIRHRPPRLPRPRPRPGIHPRP the value was -0.2; for RRIRDRPPRLPRPRPRPGLQPRP, 0.56; for RRIRGRPPRLPRPRPRPHQCPRP, -0.0129.
On to RRIRRRPPRLPRPRPRPTYMPRP, for which the “shrunken log2 fold change” value was -0.242.
For RRIRSRPPRLPRPRPRPDQQPRP the value was 0.0193; for RRIRGRPPRLPRPRPRPRQYPRP, -0.0954.
Next, RRIRGRPPRLPRPRPRPNRKPRP: 0.195.
For RRIRMRPPRLPRPRPRPWLHPRP, the “shrunken log2 fold change” value is -0.493.
Next, RRIRFRPPRLPRPRPRPKCCPRP: -0.149; RRIRLRPPRLPRPRPRPVIPPRP: -0.0331; RRIRNRPPRLPRPRPRPRTFPRP: -0.078.
In the case of RRIRLRPPRLPRPRPRPPVSPRP, the “shrunken log2 fold change” value came to 0.11.
Next, RRIRQRPPRLPRPRPRPDCLPRP: -0.793.
RRIRIRPPRLPRPRPRPKLNPRP: the “shrunken log2 fold change” value was determined as 0.0573.
Take RRIRLRPPRLPRPRPRPMKFPRP: the “shrunken log2 fold change” value worked out at 0.0807.
With RRIRIRPPRLPRPRPRPDVSPRP, the “shrunken log2 fold change” value was -0.121.
Next, RRIRQRPPRLPRPRPRPYSLPRP: -0.197; RRIRIRPPRLPRPRPRPQWIPRP: 3.04; RRIRSRPPRLPRPRPRPTLMPRP: 0.091.
For RRIRTRPPRLPRPRPRPSTMPRP the value was -0.669.
Regarding RRIRFRPPRLPRPRPRPESIPRP, the “shrunken log2 fold change” value was -0.126.
Next, RRIRPRPPRLPRPRPRPYKPPRP: -0.481; RRIRVRPPRLPRPRPRPMTTPRP: 0.0377.
Next, RRIRCRPPRLPRPRPRPRAYPRP: -0.35.
For RRIRCRPPRLPRPRPRPGQLPRP the value was -0.00796; for RRIRTRPPRLPRPRPRPASQPRP, 0.0336; for RRIRFRPPRLPRPRPRPPAHPRP, 0.613.
Regarding RRIRCRPPRLPRPRPRPGANPRP, the “shrunken log2 fold change” value amounted to 0.385.
